Test results published in paper PMC3139092 (Journal of Biological Inorganic Chemistry, 2011).
Residue numbers refer to the chain shown, from its start.

T1: mutant Val87 (M11) (Priestia megaterium, UniProt P14779, E144G/E268V/E65G/F82I/F88V/G416S/H286Y/L189Q/R48L/Y199C)
T1 sequence (P14779 1-1049 R48L/E65G/F82I/F88V/E144G/L189Q/Y199C/E268V/H286Y/G416S): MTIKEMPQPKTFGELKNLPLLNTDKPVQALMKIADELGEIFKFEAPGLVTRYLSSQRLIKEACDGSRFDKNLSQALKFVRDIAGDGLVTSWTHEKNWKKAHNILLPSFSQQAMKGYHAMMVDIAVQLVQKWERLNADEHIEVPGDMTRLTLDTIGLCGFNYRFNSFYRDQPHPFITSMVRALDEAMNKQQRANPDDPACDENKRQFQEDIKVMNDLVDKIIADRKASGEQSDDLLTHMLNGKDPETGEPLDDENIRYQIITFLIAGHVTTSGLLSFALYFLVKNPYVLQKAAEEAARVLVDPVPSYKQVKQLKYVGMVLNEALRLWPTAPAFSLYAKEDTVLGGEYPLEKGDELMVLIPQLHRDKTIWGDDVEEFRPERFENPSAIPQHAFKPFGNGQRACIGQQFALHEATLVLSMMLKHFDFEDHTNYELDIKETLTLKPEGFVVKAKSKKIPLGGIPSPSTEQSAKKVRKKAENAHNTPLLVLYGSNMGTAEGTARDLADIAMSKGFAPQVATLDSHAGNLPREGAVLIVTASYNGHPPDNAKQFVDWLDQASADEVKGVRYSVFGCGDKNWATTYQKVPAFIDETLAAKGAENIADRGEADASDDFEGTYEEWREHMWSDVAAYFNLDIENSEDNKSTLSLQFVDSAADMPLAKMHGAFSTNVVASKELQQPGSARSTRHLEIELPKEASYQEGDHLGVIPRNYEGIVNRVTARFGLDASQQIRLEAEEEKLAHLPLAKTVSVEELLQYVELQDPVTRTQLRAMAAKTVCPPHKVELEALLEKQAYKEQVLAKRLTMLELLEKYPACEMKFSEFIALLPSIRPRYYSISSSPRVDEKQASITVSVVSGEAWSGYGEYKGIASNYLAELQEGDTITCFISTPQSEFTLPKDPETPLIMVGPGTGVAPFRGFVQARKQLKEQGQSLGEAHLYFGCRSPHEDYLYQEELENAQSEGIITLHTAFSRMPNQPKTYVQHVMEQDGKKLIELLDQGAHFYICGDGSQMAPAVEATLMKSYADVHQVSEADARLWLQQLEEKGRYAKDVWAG

B1: Wild type (Phe87): Cytochrome P450 BM3 (CYP102A1) from Bacillus megaterium, wild type, Phe at position 87 (protein, UniProt P14779 1-1049, looked up)
Bifunctional cytochrome …: T1 sequence (P14779 1-1049 R48L/E65G/F82I/F88V/E144G/L189Q/Y199C/E268V/H286Y/G416S) with L48R, G65E, I82F, V88F, G144E, Q189L, C199Y, V268E, Y286H, S416G

Experiments:
mutant Val87 (M11) = target: T1, mutant Val87 (M11); format: biochemical, Bacillus megaterium; conditions: 1 μM ketoconazole
[1] = Alkoxyresorufin-induced NADPH consumption; format: biochemical; conditions: 20 nM enzyme, 200 µM NADPH, 25 °C
[2] = Lauric acid induced NADPH consumption; format: biochemical; conditions: 0.1 mM lauric acid
[3] = Alkoxyresorufin O-dealkylation by CYP102A1 M11 mutants and wild-type CYP102A1; format: biochemical; conditions: 20 µM alkoxyresorufin, 20 nM P450 BM3, 25 °C
[4] = benzyloxyresorufin as the substrate, data not shown

Molecule	Inhibition of lauric acid induced NADPH consumption (mutant Val87 (M11); 0.1 mM lauric acid)	Inhibition of substrate-induced NADPH consumption (mutant Val87 (M11); [4])	Inhibition of the O-dealkylation reaction (mutant Val87 (M11); [4])	Specific activity of NADPH consumption, DMSO ([1]; no substrate, solvent DMSO (2%) only) [nmol NADPH/min/nmol P450]	Specific activity of alkoxyresorufin-induced NADPH consumption, side chain Ethyl ([1]; substrate ethoxyresorufin 20 µM)	Effect of lauric acid on NADPH consumption [2]	Specific activity of alkoxyresorufin O-dealkylation, side chain n-Heptyl ([3]; substrate n-heptoxyresorufin)	Specific activity of alkoxyresorufin O-dealkylation, side chain n-Octyl ([3]; substrate n-octoxyresorufin)
CC(=O)N1CCN(c2ccc(OCC3COC(Cn4ccnc4)(c4ccc(Cl)cc4Cl)O3)cc2)CC1 (centres unmarked) [ketoconazole]	completely blocked	almost completely block	almost completely block					
B1				45	3,970 nmol NADPH/min/nmol P450	strongly stimulated	0.17 nmol resorufin/min/nmol P450	0.18 nmol resorufin/min/nmol P450
